# The nanobody polyreactivity screen of Harvey et al. (2022)
# Experiment: yeast display, Sf9 membrane polyspecificity reagent, FACS + sequencing; frameworks hold sequencing errors
# Summary of the method: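 Nanobodies from a synthetic yeast display library (Saccharomyces cerevisiae BJ5465), induced 36–48 hours with galactose, were stained 1 hour at 4 °C with 10% biotinylated, detergent-solubilized Sf9 membrane reagent, enriched on streptavidin microbeads, then FACS-sorted. Anti-HA (expression) and streptavidin (reagent binding) fluorescence set low and high (top ~1%) gates. Polyreactivity labels come from the gate of origin. Genes were colony-PCR amplified, MiSeq 2 × 250 sequenced and filtered by CDR length.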
row,Sequence,polyreactivity (PSR sort gate)
1,QVQLVESGGGLVQAGGSLRLSCAASGNTLRYNVMGWYRQAPGKERELVAAISGGGSTSYTDSVKGRLTISRDNAKNTVYLQMNSLKPEDTAVYYCATRSFVGGRGRDSDYWGQGTQVTVSS,low polyreactivity
2,QVQLVESGGGLVQAGGSLRLSCAASGRTFRTNAIGWYRQATGKERELVAAIRASTGSTYYADSVKGRFTISRDNAKNSVYLQMNSLKPEDTAFYYCAARLRRGLTATWYYYWGQGTQVTVSS,high polyreactivity
3,QVQLVESGGGLVQAGGSLRLSCAASGSIFVGNAMGWYRPAPGKERELVAAISSSGGSTYYADSVKGRFTISRDNAKNTVYLQMNSLKPEDTAVYYCAADIFSPAFDYWGQGTQVTVSS,low polyreactivity
4,QVQLVESGGGLVQAGGSLRLSCAAYGFIFTRYAMGWSRQAPGKERELVAAISSSGGSTSYADSVKGRFTISRDNAKNTVYFQMNSLKPEDTAVYYCAARGYRLARYRSYDYWGQGTQVTVSS,high polyreactivity
5,QVQLVESGGGLVQAGGSLRLSCAASGGIFRDYAMGWSRQAPGKERELVAAISRSGDSTYYADSVKGRFTISRDNAKNTVYLQMNSLKPEDTAVYSCAADWLWAWHYYGAMDYWGQGTQVTVSS,high polyreactivity
6,QVQLEESGGGLVQAGGSLRLSCAASGSTFYGYAMGWNRQAPGKERELVAAITRSGGSTYYADSVKGRFTISRDNAKNTVYLQMNSLKPEDTEVYYCNKYGYKGGVGYDYWGQGTQVTVSS,high polyreactivity
7,QVQLVESGGGLVQAGGSLRLSCAASGSIFSSYAMGWYRQAPGKERELVAAISQSGGDTYYADSVKGRFTISRDNAKNTVYLQMNSLKPEDTAVYYCAASVWYYPMDYWGKGTQVTVSS,low polyreactivity
8,KVQLVESGGGLVQAGGSLRLSCAASGSIIGGYAMGWYRQAPGKVRELVAAINRSGGRTYYADSVKGRFTFSRDNAKNTVYLQMNSLKPEDTAVYYCAADNFRGKYDYLGQGTQVTVSS,high polyreactivity
9,QVQLVESGGGLVQAGGSLRLSCAASGRTFVTYAMGWYRQAPGKERELVATINYSGGSTNYADSVKGRFTISRDNAKNTVYLQMNSLKPEDTAVYYCNTVPRQHRPGDYWGQGTQVTVSS,low polyreactivity
10,QVQLVESGGGLVQAGGSLRLSCAASGRIFFLYAMGWYRQAPGKERELVAAITKSGGSTYADSVKGRFTISLDNAKNTVYLQMNSLKPVDTAVYYCATENTECRDSGYIVKYGSDYWGQGTQVTVSS,low polyreactivity
11,QVQLVESGGGLVQAGGSLRLSCASSGITFRRYTMVWYRQAPGKERELVAAISRIGGSTYYADSVKGRFTISRDNAKNTVYLQMNSLKPEDTAVYYCATYYGGSGYDYWGQGTEVTVSS,high polyreactivity
12,QVQLVESGGGLVQAGGSLRLSCAASGSNFTPYAMGWYRQAPGKERELVAAISGSGGSTRYADSVKARYTISRDNAKNTVYLQMNSLKPEDTAVYYCAADRYTYIWYHIYDYWGQGTQVTVSS,low polyreactivity
13,QVQLVESGGGLVQAGGSLRLSCAASGSTFDYYAMGWYRQTPGKERELVAAISWSGGSTYYADSVKGRFTISRDNAKNTVYLQMNSPKPEDTAVYYCATGTYFPRYKYFEGYYWGQGTQVTVSS,high polyreactivity
14,QVQLVESRWRFVQAGGSLRLSCAASGSIFADYAMGWYRQAPGKERELVAAITFSGGSTYYADSVKGRFTISRDNAKNTVYLQMNSLKPEDTAVYYCAARWRYRYYSWGQGTQVTVSS,high polyreactivity
15,QVQLVESGGGLVQAGGSLRLSSAAYGSIFTYNAMGWYRQAPGKERELVDTISWRGGSTYYADSVKGRFTISRDNAKNTVYLQMNSLKPEDTAVYYCDKSWRGRYDYWGQGTQVTVSS,high polyreactivity
16,QVQIVESGGGLVQAGGSLRLSCAASGRIFGPYPMGWYRQAHVKERELVAAISCRGSSTYYADSVKGRFSISRDYAKNTVYLHMIILKPEDTAVFYCAKYPTYSYDYWGQGTQVTVSS,high polyreactivity
17,QVQLVESGGGLVQARGSLRLSCAASGNTFVRNVMGWYRKAPGKERELFAAITWRSVRTDYADSVKGRFTISLDNAKNTVNLQMNSLKPEDTAVYNCAAPSASRHGEYDYWGQGTQVTVSS,low polyreactivity
18,QVQLVESGGGLVQAGGSLRLSCAASGSTFWYYAMGWYRQAPGKEREFVAAINRSGASTYYADSVKGRFTISRDNAKNTVYLEMNSLKPEDTAVYYCAAAVYLQYLDDPTYGYWGQGTQVTVSS,high polyreactivity
19,QVQLVESGGGLVQAGGSLRLSCAASGRTFAYNAMGWYRQAPGKERELVAAISGNGGRTYYADSVKGRFTISRDNAKNTVYLQMNSLKPEDTAVYYCNAAVGYYSYSYYTKVGVDYWGQGTQVTVSS,high polyreactivity
20,QVQLVESVGGVVQAGGSLRLSCAASGRIFDRNAKGWYSQAPGKERELVAAITSGGSTNYADSVKGRFTISRDNAKNTVYLQMNSLKPEDTAVYYCANDFTSRYAPPEAYDYWGQGTQVTVSS,low polyreactivity
21,QVQLVESGGGLVQAGGSLRLSCAASGFTFAVNAMGWYRQAPGKERELVAAISKSGGRTYYADSVKGRFTISRDNAKNTVYLQMNSLKPEDTAVYYCAAEGPGYTYDYWGQGTQVTVSS,high polyreactivity
22,QVQLVESGGGLVQAGGSLRLSCAASGYYAMGWYRQAPGKERELVPAITWSGGTTYYADSVKGRFTISRDNAKNTVYLQMNSLKPEDTAVYYCNADFVRYTRHKKYYYWGQGTQVTVSS,low polyreactivity

row,Sequence,polyreactivity (PSR sort gate)
1,QVQLVESGGGLVQAGGSLRLSCAASGFIFWLYPMGWYRQAPGKERELVAAISSSGGNTYYADSVKGRFTISRDNAKNTVDLQMISLKPEDTAVYYCAASYSYGRTYSGYYWGQGTQVTVSS,low polyreactivity
2,QVQLVESGGGLVQAGGSLRLSSAASGITLTANAMGCYRQAPGKERELVAAISRGGSTYYADSVKGRFTISRDNAKNTVYLQMNSLKPEDTAVYYCNKAGGYWYAKRDYDYWGQCTQVTVSS,high polyreactivity
3,QVQLVESGGGLVQAGGSLRLSCAASGSTFKRYAMGRDRQAPGQERELVAAITWRGGSTYYADSVKGRFTISRDNAKNTVYLQMNSLKPEDTAVYYCNKASWKVGPGIGYDYWGQGTQVTVSS,high polyreactivity
4,QVQLVESGGGIVQAGGSLRLSWAASGRNFLDYTMGWYRQAHGKERELVAAIRTSAGSTYYADSVKGRFTISRDNAKNTVYLQMNILKPEYTAVYYCAAEYYVQYYYRYDYWGQGTQVTVSS,low polyreactivity
5,QVQLQESGGGLVQAGGSLRLSCAASGYISLAQTIGWFRQAPGKEREFVASIALGSSTYYTDSVKGSFTISRDNAKTTVYLQMNSLKPDDTAVYYCAARVGASYAHDYWGQGTQVTVSS,low polyreactivity
6,QVQLVESGGGLVQAGGSLRLSCAASGFTFRTNLMVWYRQAPGKERELVAVITRDGGSTYYADSVKGRFTISRDHAKNTVYLQINSLKPEDTAVYYCNAAAFINFILYDYWGQGTQVTVSS,high polyreactivity
7,QFQLVETGGGLVQAGGSLRLSCAASGRTFRFNAMGWYRQAPRKEREFVAAITSGGGTYYADSVKGRFTISRDNAKNPVYLQMNCLKPEDTAVYYCAAPRQYYLMVYWGQGTQVTVSS,low polyreactivity
8,QVQLVESGGGLVQAGGSLRLSCAASGRTFRHYAMGWYRQAPGKEREFVAAISRSGGSTRYADSVKGRFTISRDNAKNTVYLQMNSLKPEDTAVYYCAATSRSYNDYDYWGQGTQVTVSS,high polyreactivity
9,QDQLVESGGGLVQAGGSLRLSCAASGFTFRAYTMGWYRQAPGKERELVAAITYSGGRTYYADSVKGRFTISRDNAKKTVNLQMNSLNPEDTAVYYCAKRGWALSEYDYWGQGTQVTVSS,high polyreactivity
10,QVQLVESGGGLVQAGGSLRLSCAASGRIWVNAMGCYRQAPWKESELVAAISTSSASTYYADSVKGRFTISRDNAKNTVYLEMNSLKPEDTAVYYCAARWARQLGSGRRGDYWGQGTQVTVSS,high polyreactivity
11,QVRLVESGGGLVQAGGSLRLSCAASGSIFQYYVMGWYRQAPGKERELVAAISRNGGRTYYADSVKGRFTISRDNAKNTVYLQMNSLKPEDTAVYYCAADSIPHRDNYWGQGTQVTVSS,high polyreactivity
12,QVQLVESGGGLVQAGGSLRLSCAASGSIFVYYVMGWYRQAPGKERELVAAISSGGRTYYADSVKGRFTISRDNAKNTVYLQMNSLKPEDTAVYYCAARPIRPASEVNYWGQGTQVTVSS,low polyreactivity
13,QVQLVESGGGLVQAGGSLRLSCAASGITFTGYAMGWYRQAPGKERELVAVISETGGSTYADSVKGRFTISRDNAKNTVYLQMNSLKPEDTAVYYCAADPHDTVRHDALVELEYWGQGTQVTVSS,low polyreactivity
14,QVQLVESGGGLVQAGGSLRLSCAASGRTFKHYAMGWYRQAPGKERELVAGISRGGGITYYADSVKGRFTISRDNAKNTVYLQMNSLKPDDTAVYYCNAYDLYKSGGDYWGQGTQVTVSS,high polyreactivity
15,QVQLVEKGGGLVQAGGSLRLICAASGYIIWPNAMGWYRQAPGKERELVASITRAGSTNYADSVKGRFTISRDNAKNTVYLQMNSLKPEDTAVYYSAAYFWGGYNYWGQGTQVTVSS,low polyreactivity
16,QVQLVESGGGLVQAGGSLRLSCAASGNTFGENAMGWYRQAPWKERELVAAISNGGTTNYADSVKGRFTISRDNAKNTVYLQMNSLKPEDTAVYYSNAKFGISQPGHSGLLKMDYWGQGTQVTVSS,low polyreactivity
17,QVQLVESGGGLVQAGGSLRLSCPASGRIFYVYAMGWYRQAPGKERELVAAITSSGGSTNYADSVKGRFTISRDNAKNTVYLQMNSLKPEDTAVYYCAAKPYYIPTRTYSHYNFWGQGTQVTVSS,high polyreactivity
18,QVQLVESGGGLVQAGGSLRLSCAASGSIFGYYAMGWYRQAPGKERELVAAITWSGDSTYYADSVKGRFTISRDNAKNTVYLQMNSLKPEDTAVYYCAARQFVHTRYFSFGYWGQGTQVTVSS,low polyreactivity
19,QVQLVESGGGLVQAGGSLRLSCAASGRIFWYYTMGWYRQAPGKERELVAAISNGGSTYYADSVKGRFTISRDNAKNPVYLQMNSLKPEDTAVYYCAADNFRNPDYYYWGQGTQVTVSS,high polyreactivity
20,QVQLVESGGGLVQAGGSLRLSCAASGRTFFYYAMGWYRPAPGKERELVAGSTNYADSVKGRFTISRDNAKNTVYLQMNSLKPEETAVYYCNADPDDYWGQGTQVTVSS,low polyreactivity
21,QVQLVESGGGLVQAGGSLRLSCAASGSTFYDNAMGWYRQAPGKERELVASIRSGGSTKYADSVKGRFTISRDNAKNTVYLQMNSLKPEDTAVYYCAADVHFVKDPPVKSIYGKFYYWGQGTQVTVSS,low polyreactivity
